Data as given in publication PMC8497518, “ssDNA recombineering boosts in vivo evolution of nanobodies displayed on bacterial surfaces” (Communications Biology, 2021).

Experiments:
[1] = target: TirM^EPEC, extracellular domain of the translocated intimin receptor (Tir) of enteropathogenic E. coli (enteropathogenic E. coli (EPEC)); test: SEC; purified TirM^EPEC in solution, size exclusion chromatography
[2] = target: T1, TirM^EHEC, extracellular domain of the translocated intimin receptor (Tir) of enterohaemorrhagic E. coli (Escherichia coli EHEC; strain not …, UniProt Q7DB77, biotin (NHS-biotin, biotin:protein 20:1) for flow cytometry and MACS); test: flow cytometry on cells; E. coli displaying the intimin-Nb fusion (multivalent) incubated 90 min at 4 °C in PBS with biotinylated antigen (0-250 nM TirM^EPEC or 0-50 nM TirM^EHEC), stained with streptavidin-allophycocyanin; median fluorescence fitted to one-site specific binding; apparent KD; conditions: one partner purified
T1 construct: Translocated intimin receptor Tir of enterohaemorrhagic E. coli (EHEC), extracellular TirM domain; also called EHEC TirM; former antigen

[3] = target: T1, TirM^EHEC, extracellular domain of the …; test: ELISA; Maxisorp plates coated with His-tagged TirM at 10 ug/mL in PBS; purified monovalent Nb in 3% skimmed milk in PBS, 0-100 nM (TD4) or 0-400 nM (mutants), 90 min at 23 °C; detected with anti-E-tag; one-site specific binding fit; apparent KD; conditions: both partners purified
Target sequence in this assay (Q7DB77 252-362): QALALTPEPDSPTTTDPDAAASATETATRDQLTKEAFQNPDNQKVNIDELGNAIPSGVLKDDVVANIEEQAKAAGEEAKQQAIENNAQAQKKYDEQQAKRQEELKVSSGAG

[4] = target: T2, TirM^EPEC, extracellular domain of the translocated intimin receptor (Tir) of enteropathogenic E. coli (Escherichia coli EPEC; strain not …, UniProt B7UM99, biotin (NHS-biotin, biotin:protein 20:1) for flow cytometry and MACS); test: as above; conditions: both partners purified
T2 construct: Translocated intimin receptor Tir of enteropathogenic E. coli (EPEC), extracellular TirM domain; also called EPEC TirM; new antigen
Target sequence in this assay (B7UM99 255-362): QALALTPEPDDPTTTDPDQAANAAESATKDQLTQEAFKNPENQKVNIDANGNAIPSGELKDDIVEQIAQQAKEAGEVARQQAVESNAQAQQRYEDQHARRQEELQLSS

[5] = target: T2, TirM^EPEC, extracellular domain of the …; test: flow cytometry on cells; E. coli displaying the intimin-Nb fusion (multivalent) incubated 90 min at 4 °C in PBS with biotinylated antigen (0-250 nM TirM^EPEC or 0-50 nM TirM^EHEC), stained with streptavidin-allophycocyanin; median fluorescence fitted to one-site specific binding; apparent KD; conditions: one partner purified
[6] = target: T2, TirM^EPEC, extracellular domain of the …; test: ELISA; Maxisorp plates coated with His-tagged TirM at 10 ug/mL in PBS; purified monovalent Nb in 3% skimmed milk in PBS, 0-100 nM (TD4) or 0-400 nM (mutants), 90 min at 23 °C; detected with anti-E-tag; one-site specific binding fit; apparent KD; conditions: both partners purified; remark: listed apart in the source
Target sequence in this assay (B7UM99 255-362): as above

| Molecule | Kd [2] [nM] | Kd [3] [nM] | Kd [4] [nM] | Kd [5] [nM] | also measured |
| --- | --- | --- | --- | --- | --- |
| TirM^EPEC, extracellular domain of the translocated intimin receptor (Tir) of enteropathogenic E. coli (domain or fragment) | – | – | – | – | stoichiometry N [1]: 2 |
| Nb TD4 displayed on E. coli as a fusion to the outer membrane anchoring domain of intimin (VHH, VHH TD4; multivalent on the bacterial surface; also called parental Nb; non-evolved TD4; not shown: intimin outer membrane anchoring domain, N-terminal, kept) VHH: QVQLVDAGGGSVQAGGSLTLSCVASGAAYSTNLLGWFRQAPGKEREGVASIYRGNSATNYADSVKGRFTISQDKTKYTIYLQMNSLKPEDSAMYYCAHGTAPYWHTPIPTLSEDKYFYWGQGTQVTVSS | 0.41 | – | – | – | – |
| Nb TD4^T108R, secreted His6-tagged VHH-HlyA fusion (monovalent, purified) (VHH, as the VHH of m7 with T108R; also called Nb T108R) VHH: QVQLVDAGGGSVQAGGSLTLSCVASGAAYSTNLLGWFRQAPGKEREGVASIYRGNSATNYADSVKGRFTISQDKTKYTIYLQMNSLKPEDSAMYYCAHGTAPYWHRPIPTLSEDKYFYWGQGTQVTVSS | – | 4.61 | 176 | – | – |
| Nb TD4^D116G displayed on E. coli as a fusion to the outer membrane anchoring domain of intimin (VHH, as the VHH of m3 with D116G (CDR3); Evolved from TD4 by DIvERGE mutagenesis and MACS selection; also called Nb D116G; not shown: intimin outer membrane anchoring domain, N-terminal, kept) VHH: QVQLVDAGGGSVQAGGSLTLSCVASGAAYSTNLLGWFRQAPGKEREGVASIYRGNSATNYADSVKGRFTISQDKTKYTIYLQMNSLKPEDSAMYYCAHGTAPYWHTPIPTLSEGKYFYWGQGTQVTVSS | 0.58 | – | – | 17.9 | – |
| Nb TD4^H107Y, secreted His6-tagged VHH-HlyA fusion (monovalent, purified) (VHH, as the VHH of m7 with H107Y; also called Nb H107Y) VHH: QVQLVDAGGGSVQAGGSLTLSCVASGAAYSTNLLGWFRQAPGKEREGVASIYRGNSATNYADSVKGRFTISQDKTKYTIYLQMNSLKPEDSAMYYCAHGTAPYWYTPIPTLSEDKYFYWGQGTQVTVSS | – | 47.7 | 20.1 | – | Kd [6]: 20.8 ± 2.31 nM |
| Nb TD4^T108R displayed on E. coli as a fusion to the outer membrane anchoring domain of intimin (VHH, as the VHH of m3 with T108R (CDR3); Evolved from TD4 by DIvERGE mutagenesis and MACS selection; also called Nb T108R; not shown: intimin outer membrane anchoring domain, N-terminal, kept) VHH: QVQLVDAGGGSVQAGGSLTLSCVASGAAYSTNLLGWFRQAPGKEREGVASIYRGNSATNYADSVKGRFTISQDKTKYTIYLQMNSLKPEDSAMYYCAHGTAPYWHRPIPTLSEDKYFYWGQGTQVTVSS | 0.36 | – | – | 27.6 | – |
| Nb TD4, secreted His6-tagged VHH-HlyA fusion (monovalent, purified) (VHH, VHH TD4, as the VHH of m3; No cleavage of the HlyA part or the His tag is described; the fusion was detected by anti-E-tag in ELISA; also called parental TD4; non-evolved TD4; source: E. coli HB2151 with pVDL9.3 (HlyBD) and a pEHLYA derivative, secreted, purified from culture medium (Talon resin)) VHH: QVQLVDAGGGSVQAGGSLTLSCVASGAAYSTNLLGWFRQAPGKEREGVASIYRGNSATNYADSVKGRFTISQDKTKYTIYLQMNSLKPEDSAMYYCAHGTAPYWHTPIPTLSEDKYFYWGQGTQVTVSS | – | 5.55 | – | – | – |
| Nb TD4^D116G, secreted His6-tagged VHH-HlyA fusion (monovalent, purified) (VHH, as the VHH of m7 with D116G; also called Nb D116G) VHH: QVQLVDAGGGSVQAGGSLTLSCVASGAAYSTNLLGWFRQAPGKEREGVASIYRGNSATNYADSVKGRFTISQDKTKYTIYLQMNSLKPEDSAMYYCAHGTAPYWHTPIPTLSEGKYFYWGQGTQVTVSS | – | 137 | 397 | – | – |
| Nb TD4^H107Y displayed on E. coli as a fusion to the outer membrane anchoring domain of intimin (VHH, as the VHH of m3 with H107Y (CDR3); Evolved from TD4 by DIvERGE mutagenesis and MACS selection; also called Nb H107Y; not shown: intimin outer membrane anchoring domain, N-terminal, kept) VHH: QVQLVDAGGGSVQAGGSLTLSCVASGAAYSTNLLGWFRQAPGKEREGVASIYRGNSATNYADSVKGRFTISQDKTKYTIYLQMNSLKPEDSAMYYCAHGTAPYWYTPIPTLSEDKYFYWGQGTQVTVSS | 0.57 | – | – | 33.9 | – |
